For the test, the target named is T1, Biotin-huCGRPaSA (human, not fully specified; biotin (position not given)).
T1 construct: exact construct ('aSA') not explained; also called Biotin CGRPaSA; full-length (1-37) CGRP
T1 peptide: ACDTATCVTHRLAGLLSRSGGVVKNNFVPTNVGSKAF
The test can be described thus: ELISA, supernatant; relative to chimeric C245. The method in brief: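 Antibodies, including reference chimeric C245, titrated 2.5-fold from 1000 ng/mL and incubated 60 min at 37°C on wells coated with 1.0 μg/mL biotin-CGRPaSA and blocked with 2% BSA. Bound IgG detected with HRP anti-human Fc antibody and TMB, acid-stopped, absorbance 450/620 nm.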
(ELISA stands for enzyme-linked immunosorbent assay.)

B1: hu153 (antibody, V domains shown)
VH: QVQLVQSGAEVKKPGASVKVSCKTSGYTFTDYNMHWVRQAPGQRLEWMGYISPYNGGTAYNQKFKFRVTLTVDTSSSTAYMELSSLRSEDTAVYYCAREGLGGYWGQGTLVTVSS
VL: DVQLTQSPSFLSASVGDRVTITCQASQNIDGNTYMNWYQQKPGKAPKVLIYSIFNLESGVPSRFSGSGSGTEFTLTISSLQPEDFATYYCQQSNDYPYTFGQGTKLEIK
notes: 3E5 HC-1/2B8 LC2-2
B1: the “Relative binding activity, %” value worked out at 56%.

B2: hu25 (antibody, V domains shown)
VH: QVQLVQSGAEVKKPGASVKVSCKASGYTFTDYNMHWVRQAPGQRLEWMGYIFPYNGVAVYNRKFRSRVTLTVDTSSSTAYMELSSLRSEDTAVYYCAREGLGGYWGQGTLVTVSS
VL: DIVLTQSPDSLAVSLGERATINCKASQNIDYGGYSYMNWYQQKPGQPPKVLIYSVFNLESGVPDRFSGSGSGTDFTLTISSLQAEDVAVYYCQQSNEAPYTFGQGTKLEIK
notes: 1B2 HC-2/3H10 LC2-1
In the case of B2, the “Relative binding activity, %” value was 66%.

B3: hu51 (antibody, V domains shown)
VH: QVQLVQSGAEVKKPGASVKVSCKASGYTFTDFNMHWVRQAPGQRLEWMGYIYPYNGDVVYNQNFTNRVTLTVDTSSSTAYMELSSLRSEDTAVYYCAREGLGGYWGQGTLVTVSS
VL: DIVLTQSPDSLAVSLGERATINCKASQNIDYGGYSYMNWYQQKPGQPPKVLIYSVFNLESGVPDRFSGSGSGTDFTLTISSLQAEDVAVYYCQQSNEAPYTFGQGTKLEIK
notes: 1F5 HC-2/3H10 LC2-1
As to B3, the “Relative binding activity, %” value was 83%.

B4: hu21 (antibody, V domains shown)
VH: QVQLVQSGAEVKKPGASVKVSCKASGYTFTDYNMHWVRQAPGQRLEWMGYIFPYNGVAVYNRKFRSRVTLTVDTSSSTAYMELSSLRSEDTAVYYCAREGLGGYWGQGTLVTVSS
VL: DIVLTQSPDSLAVSLGERATINCKASQNIDFDGYAYMNWYQHKPGQPPKVLIYSVFNLESGVPDRFSGSGSGTDFTLTISSLQAEDVAVYYCQQSHEVPYTFGQGTKLEIK
notes: 1B2 HC-2/1F5 LC1-4
Consider B4, for which the “Relative binding activity, %” value amounted to 33%.

B5: hu33 (antibody, V domains shown)
VH: QVQLVQSGAEVKKPGASVKVSCKASGYTFIDFNMHWVRQAPGQRLEWMGYIYPYNGDVVYNQNFTNRVTLTVDTSSSTAYMELSSLRSEDTAVYYCAREGLGGYWGQGTLVTVSS
VL: DIVLTQSPASLAVSPGQRATITCKASQNIDFDGYAYMNWYQQKPGQPPKVLIYSVFNLESGVPARFSGSGSGTDFTLTINPVEADDTANYYCQQSHEVPYTFGQGTKLEIK
notes: 1F5 HC-1/1F5 LC1-3
As to B5, the “Relative binding activity, %” value was determined as 18%.

B6: hu47 (antibody, V domains shown)
VH: QVQLVQSGAEVKKPGASVKVSCKASGYTFTDFNMHWVRQAPGQRLEWMGYIYPYNGDVVYNQNFTNRVTLTVDTSSSTAYMELSSLRSEDTAVYYCAREGLGGYWGQGTLVTVSS
VL: DIVLTQSPDSLAVSLGERATINCKASQNIDFDGYAYMNWYQHKPGQPPKVLIYSVFNLESGVPDRFSGSGSGTDFTLTISSLQAEDVAVYYCQQSHEVPYTFGQGTKLEIK
notes: 1F5 HC-2/1F5 LC1-4
In the case of B6, the “Relative binding activity, %” value is 10%.

B7: hu29 (antibody, V domains shown)
VH: QVQLVQSGAEVKKPGASVKVSCKASGYTFIDFNMHWVRQAPGQRLEWMGYIYPYNGDVVYNQNFTNRVTLTVDTSSSTAYMELSSLRSEDTAVYYCAREGLGGYWGQGTLVTVSS
VL: EIVLTQSPATLSLSPGERATLSCKASQNIDYDGYAYLNWYQQKPGQAPRVLIYSVFNLESGIPARFSGSGSGTDFTLTISSLEPEDFAVYYCQQSNEFPYTFGQGTKLEIK
notes: 1F5 HC-1/1A2 LC2-3
Take B7: the “Relative binding activity, %” value was 63%.

B8: hu26 (antibody, V domains shown)
VH: QVQLVQSGAEVKKPGASVKVSCKASGYTFTDYNMHWVRQAPGQRLEWMGYIFPYNGVAVYNRKFRSRVTLTVDTSSSTAYMELSSLRSEDTAVYYCAREGLGGYWGQGTLVTVSS
VL: DIQLTQSPSSLSASVGDRVTITCKASQNIDYGGYSYMNWYQQKPGKAPKVLIYSVFNLESGVPSRFSGSGSGTDFTLTISSLQPEDFATYYCQQSNEAPYTFGQGTKLEIK
notes: 1B2 HC-2/3H10 LC2-2
Regarding B8, the “Relative binding activity, %” value was 20%.

B9: hu39 (antibody, V domains shown)
VH: QVQLVQSGAEVKKPGASVKVSCKASGYTFIDFNMHWVRQAPGQRLEWMGYIYPYNGDVVYNQNFTNRVTLTVDTSSSTAYMELSSLRSEDTAVYYCAREGLGGYWGQGTLVTVSS
VL: DIQLTQSPSSLSASVGDRVTITCKASQNIDYGGYSYMNWYQQKPGKAPKVLIYSVFNLESGVPSRFSGSGSGTDFTLTISSLQPEDFATYYCQQSNEAPYTFGQGTKLEIK
notes: 1F5 HC-1/3H10 LC2-2
With B9, the “Relative binding activity, %” value turned out to be 51%.

B10: hu52 (antibody, V domains shown)
VH: QVQLVQSGAEVKKPGASVKVSCKASGYTFTDFNMHWVRQAPGQRLEWMGYIYPYNGDVVYNQNFTNRVTLTVDTSSSTAYMELSSLRSEDTAVYYCAREGLGGYWGQGTLVTVSS
VL: DIQLTQSPSSLSASVGDRVTITCKASQNIDYGGYSYMNWYQQKPGKAPKVLIYSVFNLESGVPSRFSGSGSGTDFTLTISSLQPEDFATYYCQQSNEAPYTFGQGTKLEIK
notes: 1F5 HC-2/3H10 LC2-2
As for B10, the “Relative binding activity, %” value is 25%.

B11: hu205 (antibody, V domains shown)
VH: QVQLVQSGAEVKKPGASVKVSCKASGYTFTDYNMHWVRQAPGQGLEWMGYIYPYNGHTVYNQKFRNRVTMTVDTSSSTAYMELRSLRSDDTAVYYCAKEGLGGYWGQGTLVTVSS
VL: DVQLTQSPSFLSASVGDRVTITCQASQNIDGNTYMNWYQQKPGKAPKVLIYSIFNLESGVPSRFSGSGSGTEFTLTISSLQPEDFATYYCQQSNDYPYTFGQGTKLEIK
notes: 3H10 HC-1/2B8 LC2-2
As for B11, the “Relative binding activity, %” value was determined as 26%.

B12: hu166 (antibody, V domains shown)
VH: QVQLVQSGAEVKKPGASVKVSCKASGYTFTDYNMHWVRQAPGQRLEWMGYISPYNGGTAYNQKFKFRVTLTVDTSSSTAYMELSSLRSEDTAVYYCAREGLGGYWGQGTLVTVSS
VL: DVQLTQSPSFLSASVGDRVTITCQASQNIDGNTYMNWYQQKPGKAPKVLIYSIFNLESGVPSRFSGSGSGTEFTLTISSLQPEDFATYYCQQSNDYPYTFGQGTKLEIK
notes: 3E5 HC-2/2B8 LC2-2
As for B12, the “Relative binding activity, %” value came to 19%.

B13: hu192 (antibody, V domains shown)
VH: QVQLVQSGAEVKKPGASVKVSCKTSGYTFTDYNMHWVRQAPGQRLEWMGYISPYNAGTAYNQKFKFRVTLTVDTSSSTAYMELSSLRSEDTAVYYCAREGLGGYWGQGTLVTVSS
VL: DVQLTQSPSFLSASVGDRVTITCQASQNIDGNTYMNWYQQKPGKAPKVLIYSIFNLESGVPSRFSGSGSGTEFTLTISSLQPEDFATYYCQQSNDYPYTFGQGTKLEIK
notes: 3E5 HC-4/2B8 LC2-2
On to B13, for which the “Relative binding activity, %” value amounted to 15%.

B14: hu179 (antibody, V domains shown)
VH: QVQLVQSGAEVKKPGASVKVSCKASGYTFTDYNMHWVRQAPGQGLEWMGYISPYNGGTAYNQKFKFRVTLTVDTSSSTAYMELSRLRSDDTVVYYCAREGLGGYWGQGTLVTVSS
VL: DVQLTQSPSFLSASVGDRVTITCQASQNIDGNTYMNWYQQKPGKAPKVLIYSIFNLESGVPSRFSGSGSGTEFTLTISSLQPEDFATYYCQQSNDYPYTFGQGTKLEIK
notes: 3E5 HC-3/2B8 LC2-2
Consider B14, for which the “Relative binding activity, %” value amounted to 77%.

B15: hu67 (antibody, V domains shown)
VH: QVQLVQSGSELKKPGASVKVSCKASGYTFTDFNMHWVRQAPGQGLEWMGYIYPYNGDVVYNQNFTNRFVLSVDSSSSTAYLQISSLKAEDTAVYYCAREGLGGYWGQGTLVTVSS
VL: DIVLTQSPASLAVSPGQRATITCKASQNIDYDGYAYLNWYQQKPGQPPKVLIYSVFNLESGVPARFSGSGSGTDFTLTINPVEADDTANYYCQQSNEFPYTFGQGTKLEIK
notes: 1F5 HC-4/1A2 LC2-2
Turning to B15, the “Relative binding activity, %” value was found to be 115%.

B16: hu69 (antibody, V domains shown)
VH: QVQLVQSGSELKKPGASVKVSCKASGYTFTDFNMHWVRQAPGQGLEWMGYIYPYNGDVVYNQNFTNRFVLSVDSSSSTAYLQISSLKAEDTAVYYCAREGLGGYWGQGTLVTVSS
VL: DIQLTQSPSFLSASVGDRVTITCKASQNIDYDGYAYLNWYQQKPGKAPKVLIYSVFNLESGVPSRFSGSGSGTEFTLTISSLQPEDFATYYCQQSNEFPYTFGQGTKLEIK
notes: 1F5 HC-4/1A2 LC2-4
Consider B16, for which the “Relative binding activity, %” value turned out to be 102%.

B17: hu70 (antibody, V domains shown)
VH: QVQLVQSGSELKKPGASVKVSCKASGYTFTDFNMHWVRQAPGQGLEWMGYIYPYNGDVVYNQNFTNRFVLSVDSSSSTAYLQISSLKAEDTAVYYCAREGLGGYWGQGTLVTVSS
VL: EIVLTQSPATLSLSPGERATLSCKASQNIDFDGYAYMNWYQQKPGQAPRVLIYSVFNLESGIPARFSGSGSGTDFTLTISSLEPEDFAVYYCQQSHEVPYTFGQGTKLEIK
notes: 1F5 HC-4/1F5 LC1-1
In the case of B17, the “Relative binding activity, %” value is 116%.

B18: hu72 (antibody, V domains shown)
VH: QVQLVQSGSELKKPGASVKVSCKASGYTFTDFNMHWVRQAPGQGLEWMGYIYPYNGDVVYNQNFTNRFVLSVDSSSSTAYLQISSLKAEDTAVYYCAREGLGGYWGQGTLVTVSS
VL: DIVLTQSPASLAVSPGQRATITCKASQNIDFDGYAYMNWYQQKPGQPPKVLIYSVFNLESGVPARFSGSGSGTDFTLTINPVEADDTANYYCQQSHEVPYTFGQGTKLEIK
notes: 1F5 HC-4/1F5 LC1-3
Take B18: the “Relative binding activity, %” value was determined as 115%.

B19: hu68 (antibody, V domains shown)
VH: QVQLVQSGSELKKPGASVKVSCKASGYTFTDFNMHWVRQAPGQGLEWMGYIYPYNGDVVYNQNFTNRFVLSVDSSSSTAYLQISSLKAEDTAVYYCAREGLGGYWGQGTLVTVSS
VL: EIVLTQSPATLSLSPGERATLSCKASQNIDYDGYAYLNWYQQKPGQAPRVLIYSVFNLESGIPARFSGSGSGTDFTLTISSLEPEDFAVYYCQQSNEFPYTFGQGTKLEIK
notes: 1F5 HC-4/1A2 LC2-3
For B19, the “Relative binding activity, %” value was determined as 104%.

B20: hu73 (antibody, V domains shown)
VH: QVQLVQSGSELKKPGASVKVSCKASGYTFTDFNMHWVRQAPGQGLEWMGYIYPYNGDVVYNQNFTNRFVLSVDSSSSTAYLQISSLKAEDTAVYYCAREGLGGYWGQGTLVTVSS
VL: DIVLTQSPDSLAVSLGERATINCKASQNIDFDGYAYMNWYQHKPGQPPKVLIYSVFNLESGVPDRFSGSGSGTDFTLTISSLQAEDVAVYYCQQSHEVPYTFGQGTKLEIK
notes: 1F5 HC-4/1F5 LC1-4
As for B20, the “Relative binding activity, %” value came out at 106%.

The values above are taken from US20260125454A1 (SHANGHAI JUNSHI BIOSCIENCES, published 2026).
